From US12472269B2, “Liver-specific inducible promoters and methods of use thereof” (ASKBIO INC., priority 2019, dated 2025) come the findings set out here.

The subject of the series is Huh7 cells. The experiment in a line: EPO expression (ELISA of medium) from PB1-MinTK in Huh7 cells with CAR-containing plasmid, induction by CITCO. It is filed as cell-based, human. The text has this:
• Huh7 cells which are a human liver cell line • DPBS: without CaCl2, without MgCl2 (Gibco, 14190-094) • DMEM (Sigma, D6546) • FBS (Sigma, F9665) • Pen-Strep (Sigma, P4333) • Promega Fugene-HD (E2311) • TCPOBOP (Sigma, T2320) • CITCO (Cayman Chemicals Company, 16027) • pcDNA6 plasmid which contains the β-galactosidase gene used as internal control for transfection efficiency (Thermofisher, V22020) • mouse CAR expression plasmid from Jouan et al, 2016 (BioCat GmbH, EX-Z4288-M51-10-GC). This was used as Huh7 is CAR deficient. • β-galactosidase substrate solution (Thermofisher, 75707/75710) • Pierce BCA kit (23225) • LARII (Dual Luciferase Reporter 1000 assay system, Promega, E1980) • EPO ELISA kit (Abcam, ab119522) Method: Day 1 • Cells were seeded onto a 48 well plate at a density of 25,000 cells/300 μl Day 2 • On the day of transfection, DNA to be transfected (CAR plasmid/PB1-MinTK operably linked with luciferase or EPO/pcDNA6 plasmid for internal control) was diluted to a 100 ng/μl stock solution. Per 48 Well Transfection: • 45 ng of DNA (15 ng of each plasmid, pcDNA6, CAR and test plasmid) was mixed with 4.1 μl of Optimem medium. • 0.5 μl of Fusion HD was mixed with 4 μl of Optimem medium. • These 2 solutions were mixed and incubated at room temperature for 15 minutes. • The final solution was then added to the well drop wise. • 3 hrs after transfection, the inducer TCPOBOP was added to the appropriate wells at the indicated concentration. Day 3 • 24 hrs after induction the media was removed from the cells. • The cells were washed once in 300 μl of DPBS • Cells were lysed using 100 μl of passive lysis buffer and incubation with rocking for 15 minutes • The cell debris was pelleted by centrifugation of the plate at max speed in a benchtop centrifuge for 1 min • For luciferase, 10 μl sample was transferred into white 96-well plate and luminescence measured by injection of 50 μl of LARII substrate. • β-galactosidase activity was measured as per manufacturer's instructions (Mammalian β-Galactosidase Assay Kit, 75707/75710, Thermo Scientific) using 25 μl of lysate. 25 μl of lysate was transferred into a microplate well and mixed with 25 μl of β-galactosidase Assay Reagent, equilibrated to room temperature. The mixture was incubated at 37° C. for 30 min and absorbance measured at 405 nm. • Protein concentration was measured as per manufacturer's instructions (Pierce™ BCA Protein Assay Kit, 23225/23227, Thermo Scientific) using 25 μl of lysate. 25 μl of lysate was transferred into a microplate well and mixed with 200 μl of working solution. The mixture was incubated at 37° C. for 30 min, cooled to room temperature and then absorbance measured around 562 nm. The protein concentration was calculated with respect to protein standard curve prepared from assaying standards with known protein concentration.
Transfections with PB1-MinTk-EPO were performed as described above with the exception that EPO is secreted into the medium. Therefore, medium was collected, and EPO concentration measured as per manufacturer's instructions (ab119522 Erythropoietin (EPO) Human ELISA Kit, Abcam) using an ELISA assay. 50 μl of medium was transferred to a pre-washed microplate wells and mixed with 50 μl of 1× Biotin Conjugated Antibody. The mixture was incubated at room temperature for 1 hour. The wells were washed, 100 μl of Streptavadin-HRP was added and the plate was incubated at room temperature for 15 minutes. The wells were washed and then 100 μl of TMB Substrate Solution. The mixture was incubated at room temperature for 10 minutes. The enzyme reaction was stopped by addition of 100 μl of Stop Solution and absorbance was read at 450 nm. The EPO concentration was calculated with respect to EPO standard curve prepared from assaying standards with known EPO concentration.
The PB1-MinkTK promoter was then used to drive expression of the protein EPO, which is of therapeutic interest. […]
On the technique in general: An ELISA detects its analyte on a solid surface through an enzyme-linked reagent.

B1: PB1-MinTK: promoter: single mouse PBREM element and MinTK minimal promoter, SEQ ID NO: 7 (nucleic acid)
DNA: TCTGTACTTTCCTGACCTTGGCACAGTGCCACCATCAACTTGCCTGACACCGATCCGGCCCCGCCCAGCGTCTTGTCATTGGCGAATTCGAACACGCAGATGCAGTCGGGGCGGCGCGGTCCGAGGTCCACTTCGCATATTAAGGTGACGCGTGTGGCCTCGAACACCGAGCGACCCTGCAGCGACCCGCTTAACAGCGTCAACAGCGTGCCGCAGATCTCGAGGAGCTTGGCGAGATTTTCAGGAGCTAAGGAAGCTAAAC
modifications: PB1-MinTK
For B1, under “CITCO induced (data not shown)”, the “overall EPO expression level relative to CMV-IE” value is reported as “around 22%”. In addition, for the setting “addition of up to 2 μM CITCO”, the EPO production result is listed as “marked increase in the production of EPO”. The EPO expression result (highest concentration of CITCO (3 μM)) was “returns towards baseline activity” and the EPO expression result (no addition of the drug (DMSO)) is recorded as “very little expression of EPO”.
